The values below come from paper PMC9841331 (The EMBO Journal, 2023).

“And” between values parts separate entries of the source, which are not always exact repeats. Identical values can stand only once.

The data set “native gel or EMSA” concerns the molecule itself. Description: native gel or EMSA.
Data set [1] has as its target retromer^mRuby (yeast Vps26/Vps29/Vps35 complex labelled with mRuby) (S. cerevisiae, UniProt P40335 1-379; P38759 1-282; P34110 1-944). Description: fluorescence microscopy of recruitment to supported membrane tubes.

B1: retromer^mClover (yeast Vps26/Vps29/Vps35 complex carrying mClover-tagged Vps29), wild-type Vps35 (complex, S. cerevisiae)
chain 1: MSIFFKPPIDIEILFDNEESRKHVDIATRSSNSSYKSMKESLPVYEDGESLGGIVTLRVRDSKKVDHLGIKVSVIGSIDMLKSHGSGNSSSKKVTSSTSSSSSNGSVDVRKNSVDQFLCQSYDLCPAGELQHSQSFPFLFRDLSKRYESYKGKNVDVAYYVKVTVMRKSTDISKIKRFWVYLYNSVTTAPNTLSANETKATTNDIAGGNYAADNASDNTQTKSTQGEAADVNQVLPISHSNNEPKPVRLDIGIENCLHIEFEYAKSQYSLKEVIVGRIYFLLTRLRIKHMELSLITRESSGLQTSNVMTDSTAIRYEIMDGSSVKGETIPIRLFLSGYDLTPNMSCNYFNVKNYLSLVIIDEDGRRYFKQSEITLYRTR
chain 2: MLLLALSDAHIPDRATDLPVKFKKLLSVPDKISQVALLGNSTKSYDFLKFVNQISNNITIVRGEFDNGHLPSTKKDKASDNSRPMEEIPMNSIIRQGALKIGCCSGYTVVPKNDPLSLLALARQLDVDILLWGGTHNVEAYTLEGKFFVNPGSCTGAFNTDWPIVFDVEDSDEAVTSEVDKPTKENQSEDDDAKGGSTGKEQPGSYTPKEGTAGERENENESNVKPENQFKEDEVDMSDSDINGSNSPSFCLLDIQGNTCTLYIYLYVNGEVKVDKVVYEKE
chain 3: MAYADSPENAIAVIKQRTALMNRCLSQHKLMESLQHTSIMLTELRNPNLSPKKYYELYVIIFDSLTNLSTYLIENHPQNHHLADLYELVQYTGNVVPRLYLMITVGTSYLTFNEAPKKEILKDMIEMCRGVQNPIRGLFLRYYLSQRTKELLPEDDPSFNSQFIMNNFIEMNKLWVRLQHQGPLRERETRTRERKELQILVGSQLVRLSQIIDDNFQMYKQDILPTILEQVIQCRDLVSQEYLLDVICQVFADEFHLKTLDTLLQTTLHLNPDVSINKIVLTLVDRLNDYVTRQLEDDPNATSTNAYLDMDVFGTFWDYLTVLNHERPDLSLQQFIPLVESVIVLSLKWYPNNFDNLNKLFELVLQKTKDYGQKNISLESEHLFLVLLSFQNSKLQLTSSTTAPPNSPVTSKKHFIFQLISQCQAYKNILALQSISLQKKVVNEIIDILMDREVEEMADNDSESKLHPPGHSAYLVIEDKLQVQRLLSICEPLIISRSGPPANVASSDTNVDEVFFNRHDEEESWILDPIQEKLAHLIHWIMNTTSRKQTMKNKIQFSLEAQLEILLLIKSSFIKGGINVKYTFPAIITNFWKLMRKCRMIQEYLLKKRPDNKTLLSHYSNLLKQMFKFVSRCINDIFNSCNNSCTDLILKLNLQCAILADQLQLNEISYDFFSQAFTIFEESLSDSKTQLQALIYIAQSLQKTRSLYKEAYYDSLIVRCTLHGSKLLKKQDQCRAVYLCSHLWWATEISNIGEEEGITDNFYRDGKRVLECLQRSLRVADSIMDNEQSCELMVEILNRCLYYFIHGDESETHISIKYINGLIELIKTNLKSLKLEDNSASMITNSISDLHITGENNVKASSNADDGSVITDKESNVAIGSDGTYIQLNTLNGSSTLIRGVVATASGSKLLHQLKYIPIHHFRRTCEYIESQREVDDRFKVIYV
Usually stoichiometry N stands for the number of molecules, sites or subunits per partner or assembly. On to B1, for which the “stoichiometry N” value in “native gel or EMSA” was 2 and 4.

B2: retromer^PISA-mClover (Vps26/Vps29-mClover/Vps35^PISA) (complex, S. cerevisiae)
chain 1: MSIFFKPPIDIEILFDNEESRKHVDIATRSSNSSYKSMKESLPVYEDGESLGGIVTLRVRDSKKVDHLGIKVSVIGSIDMLKSHGSGNSSSKKVTSSTSSSSSNGSVDVRKNSVDQFLCQSYDLCPAGELQHSQSFPFLFRDLSKRYESYKGKNVDVAYYVKVTVMRKSTDISKIKRFWVYLYNSVTTAPNTLSANETKATTNDIAGGNYAADNASDNTQTKSTQGEAADVNQVLPISHSNNEPKPVRLDIGIENCLHIEFEYAKSQYSLKEVIVGRIYFLLTRLRIKHMELSLITRESSGLQTSNVMTDSTAIRYEIMDGSSVKGETIPIRLFLSGYDLTPNMSCNYFNVKNYLSLVIIDEDGRRYFKQSEITLYRTR
chain 2: MLLLALSDAHIPDRATDLPVKFKKLLSVPDKISQVALLGNSTKSYDFLKFVNQISNNITIVRGEFDNGHLPSTKKDKASDNSRPMEEIPMNSIIRQGALKIGCCSGYTVVPKNDPLSLLALARQLDVDILLWGGTHNVEAYTLEGKFFVNPGSCTGAFNTDWPIVFDVEDSDEAVTSEVDKPTKENQSEDDDAKGGSTGKEQPGSYTPKEGTAGERENENESNVKPENQFKEDEVDMSDSDINGSNSPSFCLLDIQGNTCTLYIYLYVNGEVKVDKVVYEKE
chain 3: MAYADSPENAIAVIKQRTALMNRCLSQHKLMESLQHTSIMLTELRNPNLSPKKYYELYVIIFDSLTNLSTYLIENHPQNHHLADLYELVQYTGNVVPRLYLMITVGTSYLTFNEAPKKEILKDMIEMCRGVQNPIRGLFLRYYLSQRTKELLPEDDPSFNSQFIMNNFIEMNKLWVRLQHQGPLRERETRTRERKELQILVGSQLVRLSQIIDDNFQMYKQDILPTILEQVIQCRDLVSQEYLLDVICQVFADEFHLKTLDTLLQTTLHLNPDVSINKIVLTLVDRLNDYVTRQLEDDPNATSTNAYLDMDVFGTFWDYLTVLNHERPDLSLQQFIPLVESVIVLSLKWYPNNFDNLNKLFELVLQKTKDYGQKNISLESEHLFLVLLSFQNSKLQLTSSTTAPPNSPVTSKKHFIFQLISQCQAYKNILALQSISLQKKVVNEIIDILMDREVEEMADNDSESKLHPPGHSAYLVIEDKLQVQRLLSICEPLIISRSGPPANVASSDTNVDEVFFNRHDEEESWILDPIQEKLAHLIHWIMNTTSRKQTMKNKIQFSLEAQLEILLLIKSSFIKGGINVKYTFPAIITNFWKLMRKCRMIQEYLLKKRPDNKTLLSHYSNLLKQMFKFVSRCINDIFNSCNNSCTDLILKLNLQCAILADQLQLNEISYAFFSQAFTIFEESLSDSKTQLQALIYIAQSLQKTRSLYKEAYYDSLIVRCTAHGSALLKKQDQCRAVYLCSHLWWATEISNIGEEEGITDNFYRDGKRVLECLQASLRVADSIMDNEQSCELMVEILNRCLYYFIHGDESETHISIKYINGLIELIKTNLKSLKLEDNSASMITNSISDLHITGENNVKASSNADDGSVITDKESNVAIGSDGTYIQLNTLNGSSTLIRGVVATASGSKLLHQLKYIPIHHFRRTCEYIESQREVDDRFKVIYV
With B2, the binding result in “native gel or EMSA” is “binds”.

B3: SNX-BAR complex (yeast sorting nexins Vps5/Vps17) (complex, S. cerevisiae)
chain 1: MDYEDNLEAPVWDELNHEGDKTQSLVSNSIESIGQISTNEERKDNELLETTASFADKIDLDSAPEWKDPGLSVAGNPQLEEHDNSKADDLINSLAPEQDPIADLKNSTTQFIATRESGGALFTGNANSPLVFDDTIYDANTSPNTSKSISGRRSGKPRILFDSARAQRNSKRNHSLKAKRTTASDDTIKTPFTDPLKKAEKENEFVEEPLDDRNERRENNEGKFTASVEKNILEQVDRPLYNLPQTGANISSPAEVEENSEKFGKTKIGSKVPPTEKAVAFKVEVKDPVKVGELTSIHVEYTVISESSLLELKYAQVSRRYRDFRWLYRQLQNNHWGKVIPPPPEKQSVGSFKENFIENRRFQMESMLKKICQDPVLQKDKDFLLFLTSDDFSSESKKRAFLTGSGAINDSNDLSEVRISEIQLLGAEDAAEVLKNGGIDAESHKGFMSISFSSLPKYNEADEFFIEKKQKIDELEDNLKKLSKSLEMVDTSRNTLAASTEEFSSMVETLASLNVSEPNSELLNNFADVHKSIKSSLERSSLQETLTMGVMLDDYIRSLASVKAIFNQRSKLGYFLVVIENDMNKKHSQLGKLGQNIHSEKFREMRKEFQTLERRYNLTKKQWQAVGDKIKDEFQGFSTDKIREFRNGMEISLEAAIESQKECIELWETFYQTNL
chain 2: MTSAVPYDPYDDLDNNPFAEPQEEDSEPAATTTDGSSSMSEERVGTEQTAASVQDNGTANNIQNGLGEEGNATRSKTSNEHNENQQPSQPSERVILPERSDEKKKYTLLAKVTGLERFGSATGKKENPTIIFDCSTNLPTFRKQQYKNVKKSYEEFHQLFKYLNVAIQESFVPTLPSAYTTFGINSEEDRMKVTRNFQLWFNRLSQDPLIIRNEEVAFFIESDFNTYTPINKSKSLASGLKRKTLKQLAPPYDEITELAEFRPLVKSIYVVSQSLQEKLLRVSRNRKMMVQEENAFGQDFVNLDEHNKLYRRYGKILTAVGDIDSIIATMDMATLYDGLEWIVRDAYAVKEALTNRHFIMRNLVQAQQNSKAKQEQARRFRSRRDINPMKIDEALRQLKAAAKNEQVLTLKLQRITSNMIIERKQWISWYEEWIRSSIKEFTLRKIEYERKKLTLLERVRSDIRKADENGGLSRLGRHAVSNNNSDTSQTLKGDSWTGESNRKSQIPINKIAHTEFDDELFTEDDGYNSQDSDTTSLNARHAASLLGMSTK
For B3, the binding result in data set [1] is given as “binds”.
